Test results published in US20050182242A1, “Global analysis of protein activities using proteome chips” (priority 2001, published 2005).

B1: CMK1: yeast calcium/calmodulin-dependent serine/threonine protein kinase, GST-HisX6 fusion (protein)
chain: MDDKVSEKESSPKQTEEDSEGKMAHVQPASYVNKKKYVFGKTLGAGTFGVVRQAKNTETGEDVAVKILIKKALKGNKVQLEALYDELDILQRLHHPNIVAFKDWFESKDKFYIITQLAKGGELFDRILKKGKFTEEDAVRILVEILSAVKYMHSQNIVHRDLKPENLLYIDKSDESPLVVADFGIAKRLKSDEELLYKPAGSLGYVAPEVLTQDGHGKPCDIWSIGVITYTLLCGYSAFRAERVQDFLDECTTGEYPVKFHRPYWDSVSNKAKQFILKALNLDPSKRPTAAELLEDPWIICTELKTHNLLPGLKEGLDARQKFRNSVERVRLNMKIQKLRDLYLEQTESDSDFDEGSQANGSVPPLKATDTSQLSKKLSEEEQSKLKSELTSKAFAQLVNTVLAEKEKFLNINRVCSSDSDLPGSDIKSLDEAKEKPEGKDTKTEE
modifications: left off: a dimerising Fc or GST
notes: yeast calcium/calmodulin-dependent serine/threonine protein kinase, GST-HisX6 fusion
B2: MY04: yeast class V myosin heavy chain, GST-HisX6 fusion (protein, UniProt P32492 1-1471, looked up)
Myosin-4: MSFEVGTKCWYPHKEQGWIGGEVTKNDFFEGTFHLELKLEDGETVSIETNSFENDDDHPTLPVLRNPPILESTDDLTTLSYLNEPAVLHAIKKRYMNGQIYTYSGIVLIAANPFDKVDHLYSREMIQNYSSKRKDELEPHLFAIAEEAYRFMVHEKANQTVVVSGESGAGKTVSAKYIMRYFASVQESNNREGEVEMSQIESQILATNPIMEAFGNAKTTRNDNSSRFGKYLQILFDENTTIRGSKIRTYLLEKSRLVYQPETERNYHIFYQILEGLPEPVKQELHLSSPKDYHYTNQGGQPNIAGIDEAREYKITTDALSLVGINHETQLGIFKILAGLLHIGNIEMKMTRNDASLSSEEQNLQIACELLGIDPFNFAKWIVKKQIVTRSEKIVTNLNYNQALIARDSVAKFIYSTLFDWLVDNINKTLYDPELDQQDHVFSFIGILDIYGFEHFEKNSFEQFCINYANEKLQQEFNQHVFKLEQEEYVKEEIEWSFIEFSDNQPCIDLIENKLGILSLLDEESRLPSGSDESWASKLYSAFNKPPSNEVFSKPRFGQTKFIVSHYAVDVEYEVEGFIEKNRDSVSLGHLDVFKATTNPIFKQILDNRELRSDDAPEEQNTEKKIMIPARLSQKKPTLGSMFKKSLGELMAIINSTNVHYIRCIKPNSEKKPWEFDNLMVLSQLRACGVLETIRISCAGFPSRWTFDEFVQRYFLLTDYSLWSGILYNPDLPKEAIVNFCQSILDATISDSAKYQIGNTKIFFKAGMLAFLEKLRTNKMNEICIIIQKKIRARYYRLQYLQTMESIKKCQSQIRSLLVRTRVDHELKTRAAILLQTNIRALWKREYYRAAIGQIIKLQCTCKRKLILDSVNRKFMLMAAVIIQSYIRSYGHKTDYRTLKRSSILVQSAMRMQLARRRYIVLQKEVEERNIRASYGIGLLEEAIEFKNSFILNLEMLNDSYTRLTQLLQGDLSNIPSKQRQEYETIVNGYNDKISKLKTLQVEIMNTLNKKNALKERKKKQSSLIQSHMQSLAAIKGNKPSRLSDEVKSMKQELAFIENVIAQDFTTTYSANKNDKVKGLGIAGQQVKPKLVNVIRRESGNPDLLELLMDLNCYTLEVTEGYLKKVNVTEVNGDNVLGPIHVITTVVSSLVRNGLLIQSSKFISKVLLTVESIVMSLPKDETMLGGIFWLSNLSRLPAFAANQKTLYEANGGDEKDKLTLIYLNDLENETLKVFDKIYSTWLVKFMKHASAHIEIFDMVLNEKLFKNSGDEKFAKLFTFLNEFDAVLCKFQVVDSMHTKIFNDTLKYLNVMLFNDLITKCPALNWKYGYEVDRNIERLVSWFEPRIEDVRPNLIQIIQAVKILQLKISNLNEFKLLFDFWYALNPAQIQAILLKYKPANKGEAGVPNEILNYLANVIKRENLSLPGKMEIMLSAQFDSAKNHLRYDTSAITQNSNTEGLATVSKIIKLDRK
modifications: GST-HisX6 tag
notes: yeast class V myosin heavy chain, GST-HisX6 fusion

How the values were obtained:
Details in all cases: liposome binding signal on yeast proteome chip, Cy3-streptavidin detection
PI(3,4)P2 liposomes = test: Yeast proteome chip probed with PI(3,4)P2 liposomes
[1] = tested on: phosphatidylcholine (PC) liposomes; test: Yeast proteome chip probed with PC liposomes
Method in brief: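 Binding detected by fluorescent streptavidin (Cy3 or Cy5, >30 min in the dark at RT) recognizing biotin-DHPE (1% w/w) in PC liposomes, which carried 5% (w/w) of the named phosphoinositide unless PC-only. Liposomes, made by sonication in TBS, were applied to blocked chips for 1 h at RT, then washed in PBS.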

PI(3,4,5)P3 liposomes = test: Yeast proteome chip probed with PI(3,4,5)P3 liposomes
PI(4,5)P2 liposomes = test: Yeast proteome chip probed with PI(4,5)P2 liposomes
PI(3)P liposomes = test: Yeast proteome chip probed with PI(3)P liposomes

Row | Molecule | PI(3, 4)P2 (PI(3,4)P2 liposomes) | PC [1] | PI(3, 4, 5)P3 (PI(3,4,5)P3 liposomes) | PI(4, 5)P2 (PI(4,5)P2 liposomes) | PI(3)P (PI(3)P liposomes)
1 | B1 | 1786.71 | 1073.54 | 699.07 | 545.23 | 7.00
2 | B2 | 171.73 | 103.89 | 51.07 | 4.79 | 2.00
